B1: clone F31: Taxus cuspidata cytochrome P450 oxygenase, full-length clone, SEQ ID NO: 46 (nt) / 59 (aa) (protein, listed as Taxus cuspidata)
chain: MDALSLVNSTVAKFNEVTQLQASPAILSTALTAIAGIIVLLVITSKRRSSLKLPPGKLGLPFIGETLEFVKALRSDTLRQFVEEREGKFGRVFKTSLLGKPTVILCGPAGNRLVLSNEEKLLHVSWSAQIARILGLNSVAVKRGDDHRVLRVALAGFLGSAGLQLYIGKMSALIRNHINEKWKGKDEVNVLSLVRDLVMDNSAILFFNIYDKERKQQLHEILKIILASHFGIPLNIPGFLYRKALKGSLKRKKILSALLEKRKDELRSRLASSNQDLLSVLLSFRDERGKPLSDEAVLDNCFAMLDASYDTTTSQMTLILKMLSSNPECFEKVVQEQLEIASNKKEGEEITMKDIKAMKYTWQVLQESLRMLSPVFGTLRKTMNDINHDGYTIPKGWQVVWTTYSTHQKDIYFKQPDKFMPSRFEEEDGHLDAYTFVPFGGGRRTCPGWEYAKVEILLFLHHFVKAFSGYTPTDPHERICGYPVPLVPVKGFPIKLIARS
B2: clone F34: Taxus cuspidata cytochrome P450, outlying full-length clone, SEQ ID NO: 53 (nt) / 66 (aa) (protein, listed as Taxus cuspidata)
chain: MAYPELLENLSGDRAQSPAIAAVLTILFLLGIFYILRGLRNNGRRLPPGPIPWPIVGNLHQLGKLPNRNLEELAKKHGPIMLMKLGSVPAVIVSSSAMAKEVLKTHDLVFASRPESAAGKYIAYNYKDIVFSPYGPYWRQMKKICVVELLNARRIESLRSVREEEVSVIIRSVWEKSKQGAVAVNLSKTLSSLTQGLMLQIFSSNDDGGNSSVTAIKEMMSEVSETAGAFNIGDYFPWMDWMDLQGIQRRMTKAHDYFDQVITKIIEQHQRTRAMEDTQQPKDIIDALLQMENTDGVTITMENIKAVVLGIFLGGAETTSTTLEWAMSAMLENPEVAKKVQEEIESVVGRKRVVKEMIWESMEYLQCVVKKTMRLYPAVPLLIPHESTQDCTVNGYFIPERTRILVNAWAIGKDPNVWDDALAFKPKRFLGXNVDLQKGKEFFDMVPFGAGRKGCPGASMAVVTMEHALAQLMHCFQWRIEGELDMSERLAASVQKKVDLCVLPQWRLTSSP
modifications: X: residue not identified in the source; ends and bridges not checked
B3: clone F14: Taxus cuspidata cytochrome P450 taxane 10β-hydroxylase, full-length clone, SEQ ID NO: 51 (nt) / 64 (aa) (protein, listed as Taxus cuspidata)
chain: MDSFIFLRSIGTKFGQLESSPAILSLTLAPILAIILLLLFRYNHRSSVKLPPGKLGFPLIGETIQLLRTLRSETPQKFFDDRLKKFGPVYMTSLIGHPTVVLCGPAGNKLVLSNEDKLVEMEGPKSFMKLIGEDSIVAKRGEDHRILRTALARFLGAQALQNYLGRMSSEIGHHFNEKWKGKDEVKVLPLVRGLIFSIASTLFFDVNDGHQQKQLHHLLETILVGSLSVPLDFPGTRYRKGLQARLKLDEILSSLIKRRRRDLRSGIASDDQDLLSVLLTFRDEKGNSLTDQGILDNFSAMFHASYDTTVAPMALIFKLLYSNPEYHEKVFQEQLEIIGNKKEGEEISWKDLKSMKYTWQAVQESLRMYPPVFGIFRKAITDIHYDGYTIPKGWRVLCSPYTTHLREEYFPEPEEFRPSRFEDEGRHVTPYTYVPFGGGLRTCPGWEFSKIEILLFVHHFVKNFSSYIPVDPNEKVLSDPLPPLPANGFSIKLFPRS
B4: clone F21: Taxus cuspidata cytochrome P450 oxygenase, full-length clone, SEQ ID NO: 44 (nt) / 57 (aa) (protein, listed as Taxus cuspidata)
chain: MLIEMDTFVQLESSPVLLSLTLTLILLFIFCSKQYRSSLKLPPGNMGFPLIGETIALASQTPDKFFGDRMKKFGKVFKTSLIGHPTIVLCGSSGNRFLLSNEEKLVRMFPPNSSSKLLGQDSVLGKIGEEHRIVRTALARCLGPQALQNYVSKMSSEIQRHINQKWKGKGEVKMLPLIRSLVFSIATSLFFGITDEQQQERLHHLLETVVTGLLCIPLDFPGTTFRKALHARSKLDEIMSSVIERRRNDLRLGAASSDQDLLSVLLTFKDERGNPFADKEILDNFSFLLHALYDTTISPLTLVFKLVSSNPECYENIAQEQLEILRNKKDGEDISWADLKDMKYTWQAVQETLRMCPPVYGNFRKALTDIHYDGYTIPKGWRILCSPYTTHSKEEYFDDPEKFRPSRFEEQGRDVAPYTFIPFGGGLRICPGREFAKMEILVFMHHFVKAFSSFIPVDPNEKISTDPLPSIPVNGFSINLVPRS

What was measured:
[1] = In vivo assay of yeast cells expressing recombinant oxygenases, radio-HPLC, substrate taxadienyl acetate; format: cell-based, Saccharomyces cerevisiae; details: for product identified HPLC peak: assayed with Taxadienyl Ac, graded symbols, key not given
Procedure: (§1) Transformed yeast cells that functionally express a recombinant cytochrome P450 gene from Taxus (by CO-difference spectrum) were tested in vivo for their ability to oxygenate (hydroxylate or epoxidize) taxoid substrates fed exogenously, thereby eliminating the need for microsome isolation for such a preliminary in vitro assay. […] The ether extracts resulting from these incubations were analyzed by radio-HPLC. Several clones converted the taxadienyl-5α-yl acetate substrate to a more polar product.
(§2) Isolated transformants for each full-length cytochrome P450 clone shown to express a functional enzyme by CO-difference spectrum (ten clones) were grown to stationary phase in 2 mL SGI medium at 30° C. and used to inoculate a 10-mL expression culture (in YPL medium). Approximately 8 hours after induction, cells were harvested by centrifugation (10 minutes at 1500 rpm), and the pellet was resuspended in 2 mL of fresh YPL medium.
(§3) To eliminate additional complication and uncertainty associated with microsome isolations for in vitro assays, 10^6 dpm of [20-^3H3]taxa-4(5),11(12)-diene (16 Ci/mol) or [20-^3H2]taxa-4(20),11(12)-diene-5-α-ol (4.0 Ci/mol), or other taxoid substrate were added directly to the cell suspension to assay conversion in vivo. After 12 hours of incubation at 30° C. with agitation (250 rpm), the mixture was treated for 15 minutes in a sonication bath and extracted 3 times with 2 mL diethyl ether to insure isolation of the biosynthetic products. These ether extracts, containing residual substrate and derived product(s), were concentrated to dryness, resuspended in 200 μL of CH3CN, and filtered. These samples were analyzed by radio-HPLC (Hefner et al., Chemistry and Biology 3:479–489, 1996) using a 4.6 mm i.d.×250 mm column of Econosil C18, 5 μ (Alltech, Deerfield, Ill.) with a gradient of CH3CN in H2O from 0% to 85% (10 minutes at 1 mL/minute), then to 100% CH3CN over 40 minutes.

[2] = In vivo assay of yeast cells expressing recombinant oxygenases, radio-HPLC, substrate taxadien-5α-ol; format: cell-based, Saccharomyces cerevisiae; details: for product identified HPLC peak: assayed with Taxadien5αol, graded symbols, key not given
Excerpt: (§4) Transformed yeast cells that fimctionally express a recombinant cytochrome P450 gene from Taxus (by CO-difference spectrum) can be tested in vivo for their ability to oxygenate (hydroxylate or epoxidize) taxoid substrates fed exogenously to the cells, thereby eliminating the need for microsome isolation for preliminary in vitro assays.
(§5) Accordingly, several clones of the available full-length clones were expressed in induced yeast host cells.
as §2, §3

[3] = In vivo assay of yeast cells expressing recombinant oxygenases, radio-HPLC, substrate taxadiene; format: cell-based, Saccharomyces cerevisiae; details: assayed with Taxadiene; graded symbols, key not given
Excerpt: as §4, §5, §2, §3

[4] = format: binding, Saccharomyces cerevisiae
Excerpt: CO-sensor of the 19 full-length cytochrome P450 clones from Taxus, thus far obtained, ten have yielded detectable CO-difference spectra (Table 2). […] These alternative expression systems for cytochrome P450 genes include the yeast Pichia pastoris, for which expression vectors and hosts are commercially available (Invitrogen, Carlsbad, Calif.), as well as established E. coli and baculovirus-insect cell systems for which general expression procedures have been described (Barnes, Methods Enzymol. 272:1–14, 1996;Gonzalez et al., Methods Enzymol. 206:93–99, 1991;Lee et al., Methods Enzymol. 272:86–98, 1996;and Lupien et al., Arch. Biochem. Biophys. 368:181–192, 1999).
Appropriate restriction sites were introduced by standard PCR methods (Innis et al., PCR Protocols: A Guide to Methods and Applications, Academic Press, San Diego, Calif., 1990) immediately upstream of the ATG start codon and downstream of the stop codon of all full-length cytochrome P450 clones. These modified amplicons were gel-purified, digested with the corresponding restriction enzymes, and then ligated into the expression vector pYeDP60. The vector/insert junctions were sequenced to ensure that no errors had been introduced by the PCR construction. Verified clones were transformed into yeast using the lithium acetate method (Ito et al., J. Bacteriol. 153:163–168, 1983). Isolated transformants were grown to stationary phase in SGI medium (Pompon et al., Methods Enzymol. 272:51–64, 1996), and used as inocula for a large-scale expression culture grown in YPL medium (Pompon et al., Methods Enzymol. 272:51–64, 1996). Approximately 24 hours after induction of cytochrome P450 expression with galactose (to 10% final concentration), a portion of the yeast cell culture was harvested by centrifugation. One-half of the culture was treated with carbon monoxide, and the cytochrome P450 CO-difference spectrum was recorded directly (using untreated cells as a control) by spectrophotometry (Omura and Sato, J. Biol. Chem. 239:2370–2378, 1964).

[5] = In vivo screening of functionally expressed clones in yeast with taxoid substrates (general statements); format: cell-based, Saccharomyces cerevisiae
Excerpt: as §4, §5, §1
as §2, with “medium. […]” for “medium.”

[6] = yeast transformants, radio-HPLC and GC-MS

| Molecule | product identified HPLC peak [1] | product identified HPLC peak [2] | product identified HPLC peak [3] | CO diff. spec. [4] | oxygenation of taxoid substrates ([5]; in vivo) | CO-difference spectrum [4] | product formed from taxadien-5α-yl acetate [1, 6] | product formed from taxadien-5α-ol [2, 6] | enzyme function assigned from screening ([5]; taxadienol and taxadienyl acetate as test substrates) |
| --- | --- | --- | --- | --- | --- | --- | --- | --- | --- |
| B1 | No | No | No | + |  |  |  |  |  |
| B2 |  | No | No | ++ | does not transform the taxoid substrates to oxygenated products | reliable CO-difference spectrum |  |  |  |
| B3 |  |  | No | +++ |  |  | taxadien-diol monoacetate | diol products | cytochrome P450 taxane-10β-hydroxylase |
| B4 | No |  | No | + |  |  |  |  |  |
